System: MS2 coat protein
Assay: apparent KD of MS2 coat protein; designed switch direction (-1 OFF switch, 1 ON switch): -1; higher = weaker reporter binding
Procedure, shortened: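 Normalised cluster fluorescence was curve-fitted, and each design's median over clusters is its apparent KD. Before this, SNAP-549-labelled MS2 coat protein was titrated from 0.7 or 1.5 nM, doubling to 3 µM, over RNA switches transcribed on Illumina chips by stalled E. coli RNA polymerase. Titrations had no input, 200 uM small-molecule ligand, or an oligonucleotide input, and steps lasted 0.8–1.5 h (lowest) to 10–20 min (highest).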

[1] = input ligand: microRNA oligo, concentration not stated
[2] = Eterna round: R95, input ligand: microRNA oligo, concentration not stated
[3] = Eterna round: R95, input ligand: FMN 200 uM
[4] = Eterna round: R95, input ligand: none

Row | Sequence | apparent KD of MS2 coat protein (input ligand: FMN 200 uM) [nM] | apparent KD of MS2 coat protein (input ligand: none) [nM] | apparent KD of MS2 coat protein [1] [nM] | apparent KD of MS2 coat protein [2] [nM] | apparent KD of MS2 coat protein [3] [nM] | apparent KD of MS2 coat protein [4] [nM]
1 | UUCGGCGGAGGAUAUACAGUUUUUUGUUGAAUCGGCGGAAAACAUGAGGAUCACCCAUGUAGAAGGUUGUUGAA [-19.8, -17.1 kcal, A 28%] (Eterna round: R97, puzzle: Exclusion 2) | 64.2 | 65.6 |  |  |  | 
2 | UUCGGGUCAGGAUAUUGUUAGUUUAGUUGUUUGUAUUAGUUCGAGAAGGGACAUGAGGAUCACCCAUGUGGUAA [Ex4 #81] (Eterna round: R97, puzzle: Exclusion 4) | 71.5 | 160 |  |  |  | 
3 | UUCGUGCAGCUUUGCUGUACGCGUACAUGAGGAUCACCCAUGUAGGAUAUGGUAGGCAAAGCUUACUAGAAGGAUAUAGUGAUC [Mat - Exclusion NG 3 - Mod of JL - D78] (Eterna round: R96, puzzle: Exclusion NG 3) | 66.7 | 64.5 | 41.7 |  |  | 
4 | UUCGUGUGAGGAUAUCGAUUAUGGAAGUCUAGAUCCAUACGCGAGAAGGCACAUGAGGAUCACCCAUGUAAUGG [jl-ex4-4.34 ViennaUCT mod] (Eterna round: R97, puzzle: Exclusion 4) | 38 | 227 |  |  |  | 
5 | UUCUGCACGCUGCGGUCCUACAUGAGGAUCACCCAUGUGGUCUGGUGGCGUGGGUCACCGGACUUGGCUCGUCUUGC [salish99_S_TOV1_R5_053] (Eterna round: R97, puzzle: Sensor, turn-off variant 1) | 20.1 | 21.1 |  |  |  | 
6 | UUCUGGACAGGAUAUGUACUUGAGCACUUGAGGAUCACCCAAGUCGUCAAGUACUCAGGCACAGAAGGGUUAAUUU [jl-ex5.4.67 ViennaUCT mod] (Eterna round: R97, puzzle: Exclusion 5) | 30.7 | 15.3 |  |  |  | 
7 | UUCUUACAUGAGGAUCACCCAUGUCAGGAUAUCUCCGCACUGCGCUUGCGCAGUGCAUAGAGAAGGGACAGGCU [JL ViennaUCT Aner mod 4] (puzzle: Exclusion 1) |  |  |  | 45.7 |  | 
8 | UUCUUACAUGAGGAUCACCCAUGUCAGGAUAUCUCCUCACUGCGCUUGCGCAGUGAAUAGAGAAGGGACAGGCU [JL ViennaUCT Aner mod 2] (puzzle: Exclusion 1) |  |  |  | 37.3 |  | 
9 | UUCUUACGAGGAUAUCGAUUGUGGUACAUGAGGAUCACCCAUGUAUGUGAUAUUGUAUUUCGAGAAGGCGUUCAGU [JR_E5_Sub059] (puzzle: Exclusion 5) |  |  |  | 25.2 |  | 
10 | UUCUUGGCAGGAUAUGCUUUUUUAGACAUGAGGAUCACCCAUGUGAUUAUUUUUGGUUUUGCAGAAGGGCCUUAAU [JR_E5_Sub042] (puzzle: Exclusion 5) |  |  |  | 59.9 |  | 
11 | UUCUUUACACGAGGAUAUCAUACAUGAGGAUCACCCAUGUGGCUGUGUCUGUUUUUAUGUAUUAUUGAGAAGGCGUUUUUCUUU [JR_ExcNG2_Sub075] (Eterna round: R96, puzzle: Exclusion NG 2) | 105 | 33 | 28.3 |  |  | 
12 | UUCUUUACACGAGGAUAUCAUACAUGAGGAUCACCCAUGUUACUUUGUCUGUUAUUAUGUAUUAUUGAGAAGGCGUUUUUCUUU [JR_ExcNG2_Sub077] (Eterna round: R96, puzzle: Exclusion NG 2) |  |  | 15.8 |  |  | 
13 | UUGAAGUCAUCAGGAUAUAGUAUAAAAGACAUAUAUUUUUUCAAACAUGAGGAUCACCCAUGUCGCUAGAAGGGAUUAUAGAUU [JR_ExcNG2_Sub081] (Eterna round: R96, puzzle: Exclusion NG 2) |  |  | 34.7 |  |  | 
14 | UUGAAGUCGUCAGGAUAUAGUUUUAAUGUCAUGCGUAUGUUCUUACAUGAGGAUCACCCAUGUCGCUAGAAGGGACUAUAGAUU [JR_ExcNG2_Sub009] (Eterna round: R96, puzzle: Exclusion NG 2) | 53.3 | 51.6 | 36.4 |  |  | 
15 | UUGACGGCAGGAUAUACAUGAGGAUCACCCAUGUAAAUUUUUCGUUUAACUUGAAUGUGUAGAAGGGCCAUGUU [Ex3 #72] (Eterna round: R97, puzzle: Exclusion 3) | 18.2 | 19 |  |  |  | 
16 | UUGAGCAGACGGAGAUCCAACAUGAGGAUCACCCAUGUCUCAUAAGCUUUUUGUUCAUCUUAUUGUACCUUGGUGCA [Mat - Sensor v3 - turn-off var 1 - JL Mod - D24] (puzzle: Sensor v3, turn-off variant 1) |  |  |  | 17 | 71.3 | 64.1
17 | UUGAUACAUACCUCCAUAAACAUGAGGAUCACCCAUGUAAGUGAGGAUAUAGAUUGUUUAGUAUACUAGAAGGCACUUAGAUAU [JR_ExcNG3_Sub045] (Eterna round: R96, puzzle: Exclusion NG 3) |  |  | 9.11 |  |  | 
18 | UUGAUUAGAAAGGAUAUCGGAUACUUGAGAGUCCGAGAAGGUUUUACAUGAGGAUCACCCAUGUGGCAUCCUCG [Eternabot (L1) Solution 99] (Eterna round: R97, puzzle: Exclusion 6) | 476 | 805 |  |  |  | 
19 | UUGAUUCAUUCCUCCAUAAACAUGAGGAUCACCCAUGUAAGUGAGGAUAUAGUUUGUUUAGUAUACUAGAAGGCACUUAGAUAU [JR_ExcNG3_Sub046] (Eterna round: R96, puzzle: Exclusion NG 3) | 12.7 | 12.6 | 9.61 |  |  | 
20 | UUGCCGCGAGGAUAUAUAGACGGGUUCAAUACGUGUCUCGGACUUGAGGAUCACCCAAGUAGAAGGCUUUUUAU [LRO-Excl2-12-mod _r4_621 by salish99] (Eterna round: R97, puzzle: Exclusion 2) | 15.5 | 14.7 |  |  |  | 
21 | UUGCCGCGAGGAUAUGCAGACGGGUUCAAUACGUGUCUCGGACUUGAGGAUCACCCAAGUAGAAGGCUUUUUAU [LRO-Excl2-13-mod _r4_621 by salish99] (Eterna round: R97, puzzle: Exclusion 2) | 16.2 | 14.8 |  |  |  | 
22 | UUGCGGAGAGGAUAUACAUAGGCGGAUUGGUAGACUCAAAUACAUGAGGAUCACCCAUGUAGAAGGCUUGAUCA [Eternabot (L2) Solution 22] (Eterna round: R97, puzzle: Exclusion 2) | 144 | 50.4 |  |  |  | 
23 | UUGCUACCUUGGUGCUCUACAAGCUUUUUGCUCGUUUUAACAUGAGGAUCACCCAUGUCUAGUGGAUCUGAUCGGGU [JL ViennaUCT Isreen mod 2] (puzzle: Sensor v3, turn-off variant 2) |  |  |  | 212 | 91.3 | 97.9
24 | UUGCUCCCUUAGUACUCUACAAGCUUUUUGUUCGUUUUAACAUGAGGAUCACCCAUGUCUAGUGGAUCUGAUCGGGU [JL ViennaUCT Isreen mod 4] (puzzle: Sensor v3, turn-off variant 2) |  |  |  | 226 | 136 | 165
25 | UUGCUUUCUUAGUACUCUACAAGUUUUUUGUUCGUUUUAACAUGAGGAUCACCCAUGUCUAGUGGAUCUGAUCGGGU [JL ViennaUCT Isreen mod 6] (puzzle: Sensor v3, turn-off variant 2) |  |  |  | 263 | 146 | 173
26 | UUGGAUAAUGUAGGAUAUGCAAGGCGAACCUAAGCAGAAGGACAUGAGGAUCACCCAUGUAAUGCGGUCUGCGUACAGAUCGCA [12th something] (Eterna round: R96, puzzle: Exclusion NG 1) | 79 | 22.1 | 29 |  |  | 
27 | UUGGCAGGUUUUUUGUUUGACAUGAGGAUCACCCAUGUUGCGUGGGUUGUGGGUGGGCGGUGUUUAUUUAUGGUUCU [-16.5, -38.6 kcal, A 12%] (Eterna round: R97, puzzle: Sensor, turn-off variant 1) | 43.1 | 48.4 |  |  |  | 
28 | UUGGCAGGUUUUUUGUUUGACAUGAGGAUCACCCAUGUUGCGUGGGUUGUGUGUGUGCGGUGUAUAUAUAUGGUUCU [-19.3, -40.7 kcal, A 14%] (Eterna round: R97, puzzle: Sensor, turn-off variant 1) | 203 | 364 |  |  |  | 
29 | UUGGUACUGGUAGGAUAUCCGUUGGAAACCGUCGGAGAAGGACCACAGUCACUGGGUCUUUGUCAAGUGGAGUGGAAGAACCAU [pwkr exNG1 F6.24] (Eterna round: R96, puzzle: Exclusion NG 1) | 224 | 227 | 221 |  |  | 
30 | UUGUAGCAGGCCUUCGAGUACAUGAGGAUCACCCAUGUCGUGCCUGAAAUCUCAGAGACAGGUGGCUCGUCUUAGGC [Eternabot (L1) Solution 32] (Eterna round: R97, puzzle: Sensor, turn-off variant 1) | 21.2 | 16.9 |  |  |  | 
